# Assay results taken from article PMC12376665.
# Molecular target: SlAVT6A (split-ubiquitin bait fusion) (tomato (Solanum lycopersicum))
# Sequence (main, as listed by the source): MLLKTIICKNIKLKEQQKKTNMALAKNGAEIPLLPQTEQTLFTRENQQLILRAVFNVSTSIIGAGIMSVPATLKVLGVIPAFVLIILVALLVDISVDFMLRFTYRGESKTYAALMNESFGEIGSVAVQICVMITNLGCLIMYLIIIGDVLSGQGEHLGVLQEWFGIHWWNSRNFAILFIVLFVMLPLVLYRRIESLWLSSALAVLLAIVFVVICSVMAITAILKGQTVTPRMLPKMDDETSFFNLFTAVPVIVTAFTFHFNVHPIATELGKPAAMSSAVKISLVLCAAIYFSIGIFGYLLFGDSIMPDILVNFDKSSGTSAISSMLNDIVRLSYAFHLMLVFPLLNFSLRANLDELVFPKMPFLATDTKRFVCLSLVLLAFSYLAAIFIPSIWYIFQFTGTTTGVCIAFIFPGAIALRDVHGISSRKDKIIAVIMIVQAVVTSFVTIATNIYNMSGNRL
substance,measurement,value
SlAVT6B (split-ubiquitin prey fusion) (from UniProt A0A3Q7FT69 1-472) (natural protein),"amino acid content in the liquid culture of yeast co-expressing SlAVT6A and SlAVT6B, relative to SlAVT6A expressed alone",21.8%
same,"efflux activity for amino acids in yeast co-expressing SlAVT6A and SlAVT6B, compared to only SlAVT6A expressing",65%
